Experiment: soluble on expression in E. coli; label from the status in PepcDB or PDB records

| Sequence | soluble on expression in E. coli |
| --- | --- |
| MSVEEVSKKFEENVSVDDTTATPKTVLSDSAHFDVKHPLNTKWTLWYTKPAVDKSESWSDLLRPVTSFQTVEEFWAIIQNIPEPHELPLKSDYHVFRNDVRPEWEDEANAKGGKWSFQLCGKGADIDELWLCTLLAVIGETIDEDDSQINGVVLSIRKGGNKFALWTKCEDKEPLLRIGGKFKQVLKLTDDGHLEFFPHCSANGRHPQPSITL | soluble |
| MGSDKIHHHHHHMKTYMISLHGAYENENFGDELLIAIQAKWINDEGYDVCLPFASKVYREQIPSLDKEGSRGLEESEKLIYTGGGYFGEPNHKTFKWGINFFRKKHHIPAKIFKKNNKKYLICGVGAGPITNPITRYTVVKICNFAEKVVVRDTTSYDYLIKYGVIPEKIQVGADVVLSLTIHDLPKGSIEKAKKTLNKDNKNFYLGIHIGVSPDDENYKTNVKAAMESLANVIKRNSVVPVLIADKRNATSTQEKAIEYMSSLLDEEPIVYRHSNIWETCAFLSSLDGVVTTKLHVGITAYTLGTRTFGIAAHQKTRRFYNQIKKENYFYELKEVDNGIESSLELFIKDRYWDEETLQAKKELNERALLCKREMLQFLES | not soluble |
| MLRYFRAFLPKEERFFDLFAQHTHTVVQGAQALQDMLRGGDETLVHCQRVSHFESEADNITREVLTAVRRTFITPFDRVDIKNLITSMDDAIDQMQQTAKAVILFEVREFEPPMREIGTLLVESANLVGRAVPLMQSIGPNLQMLTAMTEEITKLEGRVDDLHDIGLKELFLKHRNANTMDYIVGAEIYDHLEKVADRFDDVANEINSIVIEQVAAALEHHHHHH | soluble |
| MGIRPVNRKRLSMDKVFIEQLEVITTIGVYDWEQQIKQKLVLDLEMAHDNRAAGKSDDVADALDYAQVSQAVLEHIEQGRFLLVERVAEEVAELIMTRFAVPWLRIRLTKPGAVPQAKGVGVIIERARG | not soluble |
| WCAETAPEPQVEPEPEVLPEPDRGSATPAELGINSLDIVRLANRIEDATGTRPSLATLLNQPWQESLAMVEVLEPRPALASEQKPELVPDRDREVIDVVGAGMALGARIRAEVPISEEPVEDQFVQVGQWLKQLRAVVEPAGCMQVTPPSGNILCAIDITPGEKADVSDHAPLTPLQLGYLVGRADTWLGEPVAPHYYTEVEVADLDVVALQRALDEVVRAHPALMLGVHDDGNQGLSEALRPRLVVTDLRDHPDPDGELERIRAVGCAGVSDPLGTAWFQLRATLLPTAVR | not soluble |
| MGQEVSLLAVKTEPLNSSETTATTGDGALDTFTGSVITSSGYSPRSAHQYSPQLYPSKPYPHILSTPAAQTMSAYAGQTQYSGMQQPAVYTAYSQTGQPYSLPTYDLGVMLPAIKTESGLSQTQSPLQSGCLSYSPGFSTPQPGQTPYSYQMPGSSFAPSSTIYANNSVSNSTNFSGSQQDYPSYTAFGQNQYAQYYSASTYGAYMTSNNTADGTPSSTSTYQLQESLPGLTNQPGEFDTMQSPSTPIKDLDERTCRSSGSKSRGRGRKNNPSPPPDSDLERVFVWDLDETIIVFHSLLTGSYAQKYGKDPPMAVTLGLRMEEMIFNLADTHLFFNDLEECDQVHIDDVSSDDNGQDLSTYSFATDGFHAAASSANLCLPTGVRGGVDWMRKLAFRYRRVKELYNTYKNNVAGLLGPAKRDAWLQLRAEIEGLTDSWLTNALKSLSIISTRSNCINVLVTTTQLIPALAKVLLYSLGGAFPIENIYSATKIGKESCFERIMQRFGRKVVYVVIGDGVEEEQAAKKHNMPFWRISSHSDLLALHQALELEYL | not soluble |
| TTIVSVRRNGHVVIAGDGQATLGNTVMKGNVKKVRRLYNDKVIAGFAGGTADAFTLFELFERKLEMHQGHLVKAAVELAKDWRTDRMLRKLEALLAVADETASLIITGNGDVVQPENDLIAIGSGGPYAQAAARALLENTELSAREIAEKALDIAGDICIYTNHFHTIEELSYKAEFHHHHHH | soluble |
| MRGSHHHHHHGSMGKGITGFDPSLYSYLQSISADDSFYLAQLRRETAHLPGAPMQISPEQAQFLGLLISLTGAKQVLEIGVFRGYSALAMALQLPPDGQIIACDQDPNATAIAKKYWQKAGVAEKISLRLGPALATLEQLTQGKPLPEFDLIFIDADKRNYPRYYEIGLNLLRRGGLMVIDNVLWHGKVTEVDPQEAQTQVLQQFNRDLAQDERVRISVIPLGDGMTLALKK | soluble |
| MKKPPLNICILRLSAIGDVCHTLAVIQAIQRQYPDIKISWIIGKTEAHLMQGIHNVELIPYDKKSGWQGIITLWKQLRNKRFDFLLNMQTALRASMLSLGIKATHKIGFNKDRAREMQSLFVDSQVEMTASPHVLDGQMMFAKAIGVTDLTPRWHLPVSSADLAYSNQFLNPHTQNVVIAPCSSKTEKDWDIASNAEIAKWLTDQNINVIIVGSPTDYECATANQIKQLAPKVINTTGKTTLKQLAALIKQVDLVIAPDTGVAHIATTQHTRVIGLYAIHNPRRTAPYSDQANVISVYDQAILDYYGTSWDKLAWATKAKSKKGEKLMQRITVEEVKQKIVETLNLKL | not soluble |
| MGHHHHHHSHMKQWKEKKKKKKPIQEPEVPQIDVPNLKPIFGIPLADAVERTMMYDGIRLPAVFRECIDYVEKYGMKCEGIYRVSGIKSKVDELKAAYDREESTNLEDYEPNTVASLLKQYLRDLPENLLTKELMPRFEEACGRTTETEKVQEFQRLLKELPECNYLLISWLIVHMDHVIAKELETKMNIQNISIVLSPTVQISNRVLYVFFTHVQELFGNVVLKQVMKPLRWSNMATMPTLPETQAGIKEE | soluble |
| MTLDDSSLQKFGFIKRETLGSINIDPLQTGGLLTGAAKQALVEWGDGYSVCDFCGGVLDLVKKPPIHDFVHKALPEFLGCDEARVTNGARESKFAVMHSMGKPGDWVVLDGLAHYSSYVAAERAGLNIEVVPHAGSPEYHLDPGRYGKAIEEVTKENGKPPVLALVTYPDGSYGNIPDAAKIASVCHEYDVPLLLNGAYSVGRMPVSAKEIGADFIVGSGHKSMAASGPVGVLGVSEEYAPVVFRKSVHNKVKEIELLGCTARGATVMTLMASFPEVVKRTRNWDQEVENARWFSSRLEGMGFIQRGQKPHSHDLMFFEAPGFYEISQKVKNGRYFLYRELKERNIHGIKSGLTKYFKLSTFGLGKEKLGTVADAFEDILKKYENI | not soluble |
| MGVSLSKGGNVSLTKEAPGLTAVIVGLGWDVRTTTGTDFDLDASALLTNVEGKVANDQNFVFFNNLKSPDGSVEHTGDNITGEGEGDDEQIKVDLATVPADVDKIVFPVSIYDAENRQQSFGQVRNAFIRVVNQAGGAEIARYDLSEDASTETAMVFGELYRNGPEWKFRAIGQGYASGLRGIAQDFGVNV | not soluble |
| MVKNVAVIVDSSFYIPKEEQQKYNIYVIPTPIIFNGRIKYDSDWSSAAKFFKDMNSAKKMPSTSMASPADVLKAFEQVRADGYRQAILMTMASGISGFYNMAVNLANDYQELDVQVWDSKFTLMISGVQALLAAELSAQGITREEIMKKVALLRDSTRVFIVVDDISHLKRTGRLAGGAALVAGLLNIKPILVFNKASKIVAIGKERQMKRAWNWLLKQYAIDAPDFDRPIRVLFADANNRALTENWQADFHEKYPDVITDFIPIGPLIGVHTGEKAVGFVYMDDWKDIARHH | not soluble |
| MGSDKIHHHHHHMKTMRKILEIDEERCNGCGLCVLDCAEGAIAIVDGKAKIVSDSFCDGLGACIGSCPQDALHIIEREAVPFDEEAAMEHVRSQGGTPEANHGHGHGAGTPHRHGQSAEHGGHGRIPGHGGCPGAAMRRFDSAESPAFAVAEGTVKGPGHWPLKIRLVPPTAPFLKGADVLVAADCAAAASPIFHSHFAAGKVVLIGCPKFDDTEAYAERLADILRVSGIASLTVLRMEVPCCRGLSAAAEKARVLSGTSLVLKEVIMTCAGGPAAPAPLSSL | not soluble |
| MGSDKIHHHHHHMAAIAGLYVYPIKGLDSEHRSTATLRTHGQLHHDRTFTLVDSDTGSIVTAKRRPALHAFRTDYEPETGTLTVTDPDGQRASFSLGDDEGLSAAGDWFDSRLAVSVSMRSDPTGFVDRSDMGPAVVSTATLEAIADWFDSMTVAGARRRLRANIEIEGVPAFWEDRFVGDGAPAFEVGGVRFEGVTPCNRCVVPSRDPDTGEQLPEFRKTFCANRERTFPEWADGDAFDHEYAAMILARAPDISGGETLAVGDGVAVLDEAA | not soluble |
| LFQKLHQSLQVGEKEEDMYELLISSSMTTVMADAAWLEIRDNKGGLKAFQNSNIDEYDVFEIKKALRKNQVNISSEPQYIKDILSYPHTEKIKHLDYKSFLLIPLTSNNQLIGTLVLLKNLNDGFDKEMVDIIFTFVSQASISIKNFRLMSDAIQTERYQEELKIAKD | not soluble |
| MEKILEKIEEFFGFIPEIFKVLEDEPEILEAYYDKMEKILSNDALPLVTKELIGVGAAAALGSEHCLKTHIKAAKRLDAGGDEILLAILIGASMAESTALSRSLRVFKEERMDL | not soluble |
| MGKIQARIPDEVQEVASAVIKSTGLTVSDAVRMFMTRIARDRALPLDLFQPNLETLQAIEDAEMGRVERTSLDGLRAMIRDDKAEVCKSAK | not soluble |
| GPGSMARVTLREDFDDCAADYRILSVSADHFKEITCKVAACKQTGEEMGKINETHHEATTLMTMKGGSQLLLCDDERTFRVRRVEYSNTLLLAEAKAAKMHDTNGIIESDNASDAGEGREHVVVCSSERVFEVKPSVAYNDISQHLLESPLTLKELDTLGTVERSDENVEYIKREELENGTSSSAQRFYTFPQLVALNRSSARELAVILSDMGAVVFNGYVRLLKPALMREALRASLNFFDAYDTMSWEGVMEQLCPSVYPHIVLRAVRAAYGNATASGETPRGMAAFLQVPKVLQALAASVLLADDAEQNTQFTEAELQDKKLSKSVNRRGSLFPELDFDIFYDSWTSSIPSSLFADGTLPSQSDRNALLKFLYGSVIVVRNAEGDSHVGARAVWAPSNVLSTDVSLRTRQLFEIRPGRWEAEELRAYVAPLLDPGVAFDHIIVRYAKEYRVPGRPVMYGNLS | not soluble |
| MSLSNALVNPREAPAHGRFVPAPILAHRNCTQGALNMLEAKLKPHREYLLAQSAGQKLFLTLTVKPTAEARQARPDLSVVFVVDTSGSMREVVTEPTERTGRTTQVDGQVYEVVKGGKNKMQLMIEALRGIVTSTLIRPGDRLALVKFDDTAEVLVPFITASNQAQLAAAVDKLDWYSGGTHMGAGMRAGAGLLTGERGSRRMVLISDGQTFDAPLVEDQIGALAGLQVPVTVVAVGDEVNADLLTAIADRTQGQPLDIVPDTQNPQPPAIRASELPAALLGDLQKAAAEVVTGVALSVRTVKDVVLERVTRVQPTQTEVALRADGPLPLGNVDAGSGATFVLEFTLPARPATKMRLAQLGLTYEVPGANYRGEIPPLDVVVEFTGEEALAARIDPEVMGWVQQRNIEGLVAQATREANQNPEQAAKTLEQARAMTQRLGNGAMTQALDRAIGELGSSKTISLGTAKTLKIGAKTQTLSSDAALPSDEDIRRMTGEGGSHHHHHH | soluble |
| GALRSLVLIGHGSHHHGESARATQQVAEALRGRGLAGHLPYDEVLEGYWQQEPGLRQVLRTVAYSDVTVVPVFLSEGYVTETVLPRELGLGHQGPVPTGGVVRVLGGRRVRYTRPLGAHPGMADAIAAQARDTLPEGTDPADVTLLLLAARPGNAALETHAQALRERGQFAGVEVVLESREALTPESHAASAVPLSEWPSRVEAGQAVLVPFLTHLGKHAAERLQQALAQAAERFPQAPPLHVGGPVGEHPAVAEVVLALAAEGREDERGGDIDQAHAEAWAALRHLAERGGRLGEVLLTPYGGLFELRHTLDEGRATLDLQTVVTPEGLRDLTARDEAGRWRPIRTWRTLPRGWRAVLSPADLRLGLELLYPAVIEESYAHEHRRLHWTPWMSTARRQTGTLARVQRATPDQVDTVAAQVCASCLRTRLWAGHTLGQTIFSGVPGGLPCAEACTVLLAAVRDEVGREAMGSGD | soluble |
